# Test results from patent US20250206839A1, “METHODS, COMPOSITIONS AND USES FOR SEMA7A MONOCLONAL ANTIBODIES” (THE REGENTS OF THE UNIVERSITY OF COLORADO, A BODY CORPORATE, priority 2022, published 2025).
# B1: SmAbH1: mouse monoclonal antibody against SEMA7A generated using the 10-mer immunizing peptide … (SEQ ID NO: 2) (antibody, V domains shown)
# VH: QVKLQESGTVLARPGASVKMSCKASVYSFTSYWMHWVKQRPGQGLEWIGAIYPGNSDTSYNQKFKGKAKLTAVTSASTAYMELSSLTNEDSAVYYCTRGGAPTMITAYYAMDYWGQGTSVTVSS
# VL: DIQMTQTTSSLSASLGDRVTISCRASQDISNYLNWYQQKPDGTVKLLIYYTSRLHSGVPSRFSGSGSGTDYSLTISNLEQEDIATYFCQQGNTLPWTFGGGTKLEIKR
# Assays:
# [1] = system: pSTAT3 in MDA468 cells; assay: Western blot for phosphorylation of STAT3; assay type: cell-based, human; conditions: MDA468, low SEMA7A
# Source text: (§1) In another exemplary method the human triple negative breast cancer cell lines with low (MDA468) or high (MDA231) levels of SEMATA were again treated with SmAbH1 (CUH1) or commercially available monoclonal antibody-based inhibitors of an integrin receptor for SEMA7A (α6β1) and then evaluated using Western blot for phosphorylation of STAT3 (pSTAT3).
# [2] = system: pSTAT3 in MDA231 cells; assay: Western blot for phosphorylation of STAT3; assay type: cell-based, human; conditions: MDA231, high SEMA7A
# Source text: as §1
# [3] = system: MCF10ADCIS GFP human breast cancer cells; assay: DCIS mouse model, tumor growth and invasion; assay type: in vivo; conditions: IP every third day from day 21
# Method: DCIS model: Female SHO mice, aged 6-8 weeks old, are injected with 250,000 MCF10ADCIS GFP human breast cancer cells into both #4 mammary fat pads, then palpated and measured three times a week with digital calipers and tumor visualization is aided by use of the illumatool light source with GFP filter so we can accurately measure tumors. Treatment with SmAb started at day 21 post injection. SmAb treatment is given by IP injection every third day. Weights are taken every treatment day and mice are monitored for weight loss and other health/behavior changes.
# [4] = system: SEMA7A OE E0771 mouse mammary carcinoma cells; assay: E0771 SEMA7A OE mouse mammary carcinoma model, in vivo antibody treatment; conditions: SmAbH1 alone
# Method: For initial in vivo studies with SmABHI. SEMA7A OE E0771 mouse mammary carcinoma cells were injected into mice. Twenty days after carcinoma cells were injected. SmAbH1 (e.g., 12 ug) was administered intraperitoneally to the mice every three days until day 36 post-carcinoma cell injection. Tissues were collected at day 36. Tumors, lungs, and LNs were harvested and processed for IHC and flow cytometry to determine the effect of SEMA7A mAb therapy on cells of the tumor microenvironment (TME). In an additional experiment, tumors were treated at day 28 post-injection with a novel SEMA7A directed antibody, monoclonal antibody clone H1. Fully regressed tumors were removed from treatment at day 50) and the animals were re-challenged with an additional tumor inoculation at day 90 to assess SEMA7A mAb effects. Finally, to examine changes in immune cells in the tumor microenvironment, tumors were treated at day 13 post-inoculation and harvested at day 18. During this time period, tumors were actively regressing (FIGS. 2A-2C).
# E0771 model: Female C57/BL6 mice were injected orthotopically into the left and right #4 mammary fat pads with 200,000 E0771 SEMA7A OE mouse mammary carcinoma cells. Tumors were measured every day once tumors became palpable (3 days post injection). […]
# [5] = target: T1, SEMA7A (Homo sapiens, UniProt O75326); assay: Western blot binding on MCF7 control and SEMA7A OE cell lysates; conditions: 200 μg/mL antibody
# T1 construct: MCF7 cells endogenously express SEMA7A (75 kDa); endogenous in cells; host or cells: MCF7
# T1 sequence (O75326 45-648): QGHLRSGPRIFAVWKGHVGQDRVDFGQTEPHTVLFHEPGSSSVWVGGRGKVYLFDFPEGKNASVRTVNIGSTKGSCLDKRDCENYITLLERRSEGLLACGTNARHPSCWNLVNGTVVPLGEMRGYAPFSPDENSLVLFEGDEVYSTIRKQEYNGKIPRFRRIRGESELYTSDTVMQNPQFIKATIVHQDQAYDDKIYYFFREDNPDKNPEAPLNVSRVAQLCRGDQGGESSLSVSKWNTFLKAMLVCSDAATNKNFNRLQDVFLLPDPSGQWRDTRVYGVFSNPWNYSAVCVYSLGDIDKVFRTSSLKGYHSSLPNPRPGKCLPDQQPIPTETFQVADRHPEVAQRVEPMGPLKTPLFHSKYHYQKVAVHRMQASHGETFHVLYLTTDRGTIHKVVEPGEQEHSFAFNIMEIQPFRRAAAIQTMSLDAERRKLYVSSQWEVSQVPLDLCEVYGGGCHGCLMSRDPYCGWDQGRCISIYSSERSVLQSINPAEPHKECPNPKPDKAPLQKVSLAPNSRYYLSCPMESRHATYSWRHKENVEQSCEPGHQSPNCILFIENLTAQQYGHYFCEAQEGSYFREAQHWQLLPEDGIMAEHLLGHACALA
# Method: In another exemplary method, the ability of an anti-SEMA7A monoclonal antibody to bind to SEMATA was tested. In one exemplary method, CUH1 mAb was validated for binding to MCF7 SEMA7A over expressing cell lysate using Western Blot. Specifically. binding of the CUH1 mAb was detected on lysates from MCF7 control cells and SEMA7A overexpressing (OE) cells using 200 μg/mL of SmAbH1. MCF7 cells endogenously express SEMA7A (75 kDa) but OE cells were engineered to overexpress V5 tagged
# MCF7 cells were lysed with RIPA containing EDTA (Thermo Scientific) and spun at 14K for 15 min. The supernatant was then quantitated using a Qubit Assay (Invitrogen) standard protocol and mixed 3:1 with Laemmli Sample Buffer (BioRad) with 2-mercaptoethanol and heated at 70 degrees for 10 min. 100 μg of lysate was loaded onto 4-20% Tris-Glycine gel (BioRad) and transferred to a PVDF membrane (Milipore). The membrane was blocked with 5% Bovine Serum Albumin (BSA) for 3 hours and then probed with 200 μg/ml of CUH1 in 5% BSA overnight at 4 degrees with gentle rocking. The membrane was washed three times 15 minutes with TBS-T and then probed with 10 ng/ml Goat Anti-Mouse IgG HRP (Abcam 97040) in 5% BSA for 1 hour at room temp. The membrane was washed and then incubated with 1:1 mix SuperSignal West Pico (Thermo Scientific) for 4 min at room temp.
molecule,measurement,setting,value
B1,downstream STAT3 activation (pSTAT3),[1],blocking block downstream STAT3 activation similar to integrin blockade
same,downstream STAT3 activation (pSTAT3),[2],blocking block downstream STAT3 activation similar to integrin blockade
same,tumor growth and invasion of ductal carcinoma in situ (DCIS) lesions,[3],block or inhibit tumor growth and invasion
same,tumor growth and metastasis compared to anti-PD-L1 and the combination,[4],superior at reducing both tumor growth and metastasis
same,binding to SEMA7A in cell lysates,[5],successfully bound to both endogenous (75 kDa) and overexpressed (100 kDa) SEMA7A
